Where “and” joins values, the source holds several entries; their conditions need not be identical. Equal values may be shown once.

The target in series [1] is T1, PGAM–PirC complex (Synechocystis sp. PCC 6803, UniProt P74507).
T1 sequence (P74507 1-532): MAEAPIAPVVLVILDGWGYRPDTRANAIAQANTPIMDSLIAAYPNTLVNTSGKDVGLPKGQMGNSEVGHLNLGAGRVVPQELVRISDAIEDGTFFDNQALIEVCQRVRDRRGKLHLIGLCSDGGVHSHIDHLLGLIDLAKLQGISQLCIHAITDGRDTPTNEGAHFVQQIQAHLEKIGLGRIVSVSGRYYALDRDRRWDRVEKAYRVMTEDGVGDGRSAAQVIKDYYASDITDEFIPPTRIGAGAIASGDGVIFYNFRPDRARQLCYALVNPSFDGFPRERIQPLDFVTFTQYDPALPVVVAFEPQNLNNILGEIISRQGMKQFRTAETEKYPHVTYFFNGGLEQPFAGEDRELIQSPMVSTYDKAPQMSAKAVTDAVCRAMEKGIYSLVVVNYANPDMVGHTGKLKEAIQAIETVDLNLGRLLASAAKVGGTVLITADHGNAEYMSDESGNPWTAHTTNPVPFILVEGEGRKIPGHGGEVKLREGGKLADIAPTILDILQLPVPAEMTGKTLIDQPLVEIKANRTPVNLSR
T1 sequence (P77971 53-164 partner): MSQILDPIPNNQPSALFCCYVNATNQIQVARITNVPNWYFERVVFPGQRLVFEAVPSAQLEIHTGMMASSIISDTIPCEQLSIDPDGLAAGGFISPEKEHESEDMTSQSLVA
The series is described as follows: bio-layer interferometry, inhibition of PirC–PGAM binding.

Series [2] addresses T2, PII–PirC complex (Synechocystis sp. PCC 6803, UniProt Q55247). The series is described as follows: bio-layer interferometry, enhancement of PirC–PII binding. The note with it: effector promotes PII–PirC complex.
Series [3] concerns the target T2, PII–PirC complex. The series is described as follows: bio-layer interferometry, inhibition of PirC–PII binding. For orientation: Biolayer interferometry detects binding as a change in optical thickness at a sensor tip.
Substrate in series [4]: O=C(O)[C@H](O)COP(=O)(O)O
The experiment in a line: purified protein. In kind it is biochemical, Synechocystis sp. PCC 6803. The following applies: no PirC, pH 8.0, 30 °C, 5 mM MgSO4, 0.4 mM MnCl2, 100 mM KCl.

In series [5] the target is T3, PII signalling protein, C-terminal His8-tagged (Synechocystis sp. PCC 6803, UniProt Q55247 1-112). The experiment in a line: BLI.
T3 sequence (Q55247 whole entry): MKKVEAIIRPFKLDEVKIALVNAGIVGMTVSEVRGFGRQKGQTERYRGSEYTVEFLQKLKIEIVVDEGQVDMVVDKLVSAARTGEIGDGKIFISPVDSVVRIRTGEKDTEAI
Series [6] addresses T3, PII signalling protein, C-terminal …. The experiment in a line: SPR.

T2 sequence (Q55247 whole entry, one chain of several): as the sequence (Q55247 whole entry) above

Usually IC50 stands for the midpoint of a concentration-inhibition curve. The low end stands for greater potency in that assay, the high end for weaker potency in that assay. `O=C(O)[C@@H](CO)OP(=O)(O)O` [2-PGA] registered an IC50 in series [1] of 970 ± 1 µM.

For `Nc1ncnc2c1ncn2[C@@H]1O[C@H](COP(=O)(O)OP(=O)(O)O)[C@@H](O)[C@H]1O` [ADP], the “bio-layer interferometry, enhancement of PirC-PII binding” value in series [2] (2 mM ADP) was “In the presence of ATP or ADP, PirC binding to PII strongly increased”.

As for `O=C(O)[C@H](O)COP(=O)(O)O` [3-PGA], in series [1], the IC50 turned out to be 2400 ± 1 µM.

For the molecule `Nc1ncnc2c1ncn2[C@@H]1O[C@H](COP(=O)(O)OP(=O)(O)OP(=O)(O)O)[C@@H](O)[C@H]1O` [ATP], the “bio-layer interferometry, enhancement of PirC-PII binding” value in series [2] (2 mM ATP) is “In the presence of ATP or ADP, PirC binding to PII strongly increased”.

Regarding `O=C(O)CCC(=O)C(=O)O` [2-OG], in series [3], the IC50 turned out to be 123.4 ± 1.1 µM.

B1: PGAM (Synechocystis sp. PCC 6803 substr. Kazusa) (protein)
chain: T1 sequence (P74507 1-532)
As usually defined, the Km is the substrate concentration at which the rate is half of its maximum. For orientation: Vmax means the top rate of the reaction or transport when substrate is in excess. The term kcat denotes the number of substrate molecules converted per active site and unit of time at saturation. In general, kcat/Km refers to the second-order rate constant that governs catalysis at low substrate concentration. For the molecule B1, in series [4], the Km is 126.6 ± 6.4 µM, the Vmax was determined as 2.85 µmol/min/mg, the kcat stood at 2.78 ± 0.03 s⁻¹ and the kcat/Km was found to be 22000 M⁻¹ s⁻¹.

B2: PirC (PII-interacting regulator of carbon metabolism; product of sll0944), short 112-amino-acid variant, strep-tagged (natural protein)
chain: T1 sequence (P77971 53-164 partner)
One may read the Kd as the equilibrium constant for the complex coming apart. Lower therefore signals a tighter complex. Consider B2, for which, in series [5], the Kd is 0.0373 µM and 0.0141 µM. Besides, in series [6], the “stoichiometry N” value was ~1 PirC monomer per PII trimer.

Values taken from PMC8018021 (Proceedings of the National Academy of Sciences of the …, 2021).
